From patent publication US20240043515A1 (Chugai, published 2024)

B1: EGL-ART1 (H240-Kn125/L73-k0//H240-H1076/L73-k0) (antibody, human IgG1, kappa)
heavy 1: QDQLVQSGAEVKKPGASVKVSCKASGFNIKDTYIQWVRQAPGQGLEWMGRIDPLRKQTKYREKFEGRVTITADTSTNTAYMELSSLRSEDTAVYYCVRSGREFDYWGQGTLVTVSSASTKGPSVFPLAPSSKSTSGGTAALGCLVKDYFPEPVTVSWNSGALTSGVHTFPAVLQSSGLYSLSSVVTVPSSSLGTQTYICNVNHKPSNTKVDKKVEPKSCDKTHTCPPCPAPEYQWGPMVFLFPPKPKDTLMISRTPEVTCVVVDVSDEEPEVKFNWYVDGVEVHNAKTKPREEQYNATYRVVSVLTVLHQDWLNGKEYKCKVSNKALPAPIEKTISKAKGQPREPQVCTLPPSRDELTKNQVSLWCLVKGFYPSDIAVEWESNGQPENNYKTTPPVLDSDGSFFLYSKLTVDKSRWQQGNVFSCSVMHEALHNHYTQKSLSLSP
heavy 2: QDQLVQSGAEVKKPGASVKVSCKASGFNIKDTYIQWVRQAPGQGLEWMGRIDPLRKQTKYREKFEGRVTITADTSTNTAYMELSSLRSEDTAVYYCVRSGREFDYWGQGTLVTVSSASTKGPSVFPLAPSSKSTSGGTAALGCLVKDYFPEPVTVSWNSGALTSGVHTFPAVLQSSGLYSLSSVVTVPSSSLGTQTYICNVNHKPSNTKVDKKVEPKSCDKTHTCPPCPAPELLGGPSVFLFPPKPKDTLMISRTPEVTCVVVDVSHEEPEVKFNWYVDGVEVHNAKTKPREEQYNSTYRVVSVLTVLHQDWLNGKEYKCKVSNDALPMPIEETISKAKGQPREPQVYTLPPSRCELTKNQVSLSCAVKGFYPSDIAVEWESNGQPENNYKTTPPVLDSDGSFFLVSKLTVDKSRWQQGNVFSCSVMHEALHNHYTQKSLSLSP
light: DIQMTQSPSSLSASVGDRVTITCRASQDIHKYIAWYQQKPGQAPRLLIQYTSTLQPGVPSRFSGSGSGTDYTFTISSLQPEDIATYYCLQYEQLRTFGGGTKVEIKRTVAAPSVFIFPPSDEQLKSGTASVVCLLNNFYPREAKVQWKVDNALQSGNSQESVTEQDSKDSTYSLSSTLTLSKADYEKHKVYACEVTHQGLSSPVTKSFNRGEC
notes: Heterodimeric Fc variant of the anti-human Epiregulin IgG1; Kn125: L234Y/L235Q/G236W/S239M/H268D/D270E/S298A + Y349C/T366W; H1076: D270E/K326D/A330M/K334E + D356C/T366S/L368A/Y407V (EU numbering); also called Kn125/H1076
B2: EGL-ART2 (H240-Kn120/L73-k0//H240-H1068/L73-k0) (antibody, human IgG1, kappa)
heavy 1: QDQLVQSGAEVKKPGASVKVSCKASGFNIKDTYIQWVRQAPGQGLEWMGRIDPLRKQTKYREKFEGRVTITADTSTNTAYMELSSLRSEDTAVYYCVRSGREFDYWGQGTLVTVSSASTKGPSVFPLAPSSKSTSGGTAALGCLVKDYFPEPVTVSWNSGALTSGVHTFPAVLQSSGLYSLSSVVTVPSSSLGTQTYICNVNHKPSNTKVDKKVEPKSCDKTHTCPPCPAPEYYWGPMVFLFPPKPKDTLMISRTPEVTCVVVDVSDEDPEVKFNWYVDGVEVHNAKTKPREEQYNATYRVVSVLTVLHQDWLNGKEYKCKVSNKDLPAPIEKTISKAKGQPREPQVCTLPPSRDELTKNQVSLWCLVKGFYPSDIAVEWESNGQPENNYKTTPPVLDSDGSFFLYSKLTVDKSRWQQGNVFSCSVMHEALHNHYTQKSLSLSP
heavy 2: QDQLVQSGAEVKKPGASVKVSCKASGFNIKDTYIQWVRQAPGQGLEWMGRIDPLRKQTKYREKFEGRVTITADTSTNTAYMELSSLRSEDTAVYYCVRSGREFDYWGQGTLVTVSSASTKGPSVFPLAPSSKSTSGGTAALGCLVKDYFPEPVTVSWNSGALTSGVHTFPAVLQSSGLYSLSSVVTVPSSSLGTQTYICNVNHKPSNTKVDKKVEPKSCDKTHTCPPCPAPELLGGPSVFLFPPKPKDTLMISRTPEVTCVVVDVSHEEPEVKFNWYVDGVEVHNAKTKPREEQYNSTYRVVSVLTVLHQDWLNGKEYKCKVSNDALPKPIEETISKAKGQPREPQVYTLPPSRCELTKNQVSLSCAVKGFYPSDIAVEWESNGQPENNYKTTPPVLDSDGSFFLVSKLTVDKSRWQQGNVFSCSVMHEALHNHYTQKSLSLSP
light: DIQMTQSPSSLSASVGDRVTITCRASQDIHKYIAWYQQKPGQAPRLLIQYTSTLQPGVPSRFSGSGSGTDYTFTISSLQPEDIATYYCLQYEQLRTFGGGTKVEIKRTVAAPSVFIFPPSDEQLKSGTASVVCLLNNFYPREAKVQWKVDNALQSGNSQESVTEQDSKDSTYSLSSTLTLSKADYEKHKVYACEVTHQGLSSPVTKSFNRGEC
notes: Kn120: L234Y/L235Y/G236W/S239M/H268D/S298A/A327D + Y349C/T366W; also called Kn120/H1068

Tests used:
[1] = molecular target: hFcγRIIIaV on Jurkat effector cells (human, UniProt P08637 17-254); assay: cell-based or functional assay
[2] = molecular target: T1, hFcγRIIaH on Jurkat effector cells (human, UniProt P12318 34-317); assay: cell-based or functional assay
T1 sequence (looked up): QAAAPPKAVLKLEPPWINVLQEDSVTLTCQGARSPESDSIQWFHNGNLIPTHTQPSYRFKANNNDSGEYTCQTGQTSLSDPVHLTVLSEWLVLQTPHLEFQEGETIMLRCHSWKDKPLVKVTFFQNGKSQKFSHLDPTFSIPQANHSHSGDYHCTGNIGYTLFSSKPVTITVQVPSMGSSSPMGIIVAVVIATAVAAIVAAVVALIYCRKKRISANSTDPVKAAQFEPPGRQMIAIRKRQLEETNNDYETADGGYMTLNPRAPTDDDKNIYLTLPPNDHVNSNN

[3] = molecular target: T2, human FcγRIIa R extracellular domain (human, UniProt P12318 34-217); assay: SPR; KD for hFcγRIIb divided by KD for this FcγR
T2 construct: extracellular domain; also called hFcγR IIa R; FcγRIIa allotype R131
T2 sequence (looked up): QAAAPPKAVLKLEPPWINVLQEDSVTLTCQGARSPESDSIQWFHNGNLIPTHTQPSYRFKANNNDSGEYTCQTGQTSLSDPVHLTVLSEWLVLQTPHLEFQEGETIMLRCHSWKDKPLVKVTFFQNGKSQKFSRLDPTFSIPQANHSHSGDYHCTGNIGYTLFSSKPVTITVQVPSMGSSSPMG
Description: (§1) The extracellular domains of FcγRs were produced by the method described in WO2014104165. The interaction between the produced antibodies and human FcγRs was analyzed using Biacore 8K+ by the method below. For the running buffer, 50 mM Na-Phosphate, 150 mM NaCl, and 0.05% Tween20 (pH 7.4) was used, and measurement was performed at 25° C. The sensor chip used was a Series S SA chip (GE Healthcare) onto which CaptureSelect Human Fab-kappa Kinetics Biotin Conjugate (Thermo Fisher Scientific) was immobilized. An antibody of interest was captured onto this chip, and each FcγR diluted with the running buffer was allowed to interact with it. The chip was regenerated using 10 mM Glycine-HCl (pH 1.5), and repeatedly used to capture antibodies and perform measurement. The dissociation constants KD (mol/L) of each antibody for FcγRs were calculated using Biacore Insight Evaluation Software, with a steady state affinity model for the dissociation constant for FcγRIIb and a 1:1 Langmuir binding model for the dissociation constants for the other FcγRs (Table 2).

[4] = molecular target: T3, human FcγRIIIa V extracellular domain (human, UniProt P08637 17-208); assay: SPR; KD for hFcγRIIb divided by KD for this FcγR
T3 construct: extracellular domain; also called hFcγR IIIa V; FcγRIIIa allotype V158
Description: as §1

[5] = molecular target: T4, human FcγRIIa H extracellular domain (human, UniProt P12318 34-217); assay: SPR; KD for hFcγRIIb divided by KD for this FcγR
T4 construct: extracellular domain; also called hFcγR IIa H; FcγRIIa allotype H131
T4 sequence (looked up): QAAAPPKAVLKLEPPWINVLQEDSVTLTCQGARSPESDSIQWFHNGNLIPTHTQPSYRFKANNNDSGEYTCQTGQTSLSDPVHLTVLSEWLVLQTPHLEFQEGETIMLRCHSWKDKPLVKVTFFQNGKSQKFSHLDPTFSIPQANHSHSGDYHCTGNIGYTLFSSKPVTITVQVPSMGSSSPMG
Description: as §1

[6] = molecular target: T5, human FcγRIIIa F extracellular domain (human, UniProt P08637 17-208); assay: SPR; KD for hFcγRIIb divided by KD for this FcγR
T5 construct: extracellular domain; also called hFcγR IIIa F; FcγRIIIa allotype F158
Description: as §1

[7] = molecular target: T6, human FcγRIIb extracellular domain (human, UniProt P31994 43-217); assay: SPR; KD of G1d divided by KD of this antibody
T6 construct: extracellular domain; also called hFcγR IIb
T6 sequence (looked up): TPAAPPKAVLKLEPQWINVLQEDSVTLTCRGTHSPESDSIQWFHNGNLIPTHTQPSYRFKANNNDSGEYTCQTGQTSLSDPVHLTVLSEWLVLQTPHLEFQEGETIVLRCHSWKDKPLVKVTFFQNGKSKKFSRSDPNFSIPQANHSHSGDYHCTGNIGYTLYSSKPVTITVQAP
Description: as §1

[8] = molecular target: T2, human FcγRIIa R extracellular domain; assay: SPR; KD of G1d divided by KD of this antibody
Description: as §1

[9] = molecular target: T3, human FcγRIIIa V extracellular domain; assay: SPR; KD of G1d divided by KD of this antibody
Description: as §1

[10] = molecular target: T4, human FcγRIIa H extracellular domain; assay: SPR; KD of G1d divided by KD of this antibody
Description: as §1

[11] = molecular target: T5, human FcγRIIIa F extracellular domain; assay: SPR; KD of G1d divided by KD of this antibody
Description: as §1

[12] = molecular target: T7, human FcγRIa extracellular domain (human, UniProt P12314 16-292); assay: SPR; KD of G1d divided by KD of this antibody
T7 construct: extracellular domain; also called hFcγR Ia
Description: as §1

T3 sequence (P08637 17-208 F176V): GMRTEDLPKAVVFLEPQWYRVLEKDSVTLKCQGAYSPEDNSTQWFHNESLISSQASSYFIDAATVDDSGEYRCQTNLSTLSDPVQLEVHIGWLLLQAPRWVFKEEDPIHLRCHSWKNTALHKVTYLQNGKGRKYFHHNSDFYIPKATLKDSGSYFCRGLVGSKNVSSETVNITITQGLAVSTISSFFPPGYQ
T5 sequence (P08637 17-208): as the sequence (P08637 17-208 F176V) above, with V160F counted along it
hFcγRIIIaV on Jurkat effector cells, sequence (P08637 17-254, form in doubt): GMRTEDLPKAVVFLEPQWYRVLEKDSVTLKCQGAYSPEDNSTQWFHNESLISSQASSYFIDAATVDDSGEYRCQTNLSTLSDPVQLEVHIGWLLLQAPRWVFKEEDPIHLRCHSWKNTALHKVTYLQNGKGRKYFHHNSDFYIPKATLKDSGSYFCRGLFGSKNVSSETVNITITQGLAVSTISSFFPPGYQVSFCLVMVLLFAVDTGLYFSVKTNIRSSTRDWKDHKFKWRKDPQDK
T7 sequence (P12314 16-292): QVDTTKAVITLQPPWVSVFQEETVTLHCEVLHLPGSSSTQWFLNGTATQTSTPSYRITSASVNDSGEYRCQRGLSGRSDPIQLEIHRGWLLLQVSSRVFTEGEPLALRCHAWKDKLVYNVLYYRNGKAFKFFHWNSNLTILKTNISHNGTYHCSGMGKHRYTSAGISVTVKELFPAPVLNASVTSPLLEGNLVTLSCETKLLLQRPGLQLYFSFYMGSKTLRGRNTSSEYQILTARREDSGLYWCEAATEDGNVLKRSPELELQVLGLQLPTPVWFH

Row | Binder | EC50 of reporter gene induction (ADCC Reporter Bioassay, Hepa1-6/hEREG target cells) [1] | EC50 of reporter gene induction (ADCP Reporter Bioassay, Hepa1-6/hEREG target cells) [2] | A/I ratio (KD for FcγRIIb divided by KD for each FcγR) [3] | A/I ratio (KD for FcγRIIb divided by KD for each FcγR) [4] | A/I ratio (KD for FcγRIIb divided by KD for each FcγR) [5] | A/I ratio (KD for FcγRIIb divided by KD for each FcγR) [6] | Relative value to KD between G1d and hFcgRs [7] | Relative value to KD between G1d and hFcgRs [8] | Relative value to KD between G1d and hFcgRs [9] | Relative value to KD between G1d and hFcgRs [10] | Relative value to KD between G1d and hFcgRs [11] | Relative value to KD between G1d and hFcgRs [12]
1 | B1 | 0.000716 µg/mL | 0.0353 µg/mL | 12.4 ratio | 11300 ratio | 47.4 ratio | 4950 ratio | 0.8 times | 1.6 times | 323 times | 4.3 times | 1170 times | 3 times
2 | B2 | 0.00135 µg/mL | 0.0218 µg/mL | 13 ratio | 264 ratio | 5.8 ratio | 68.4 ratio | 22.8 times | 49 times | 215 times | 14.7 times | 460 times | 3.4 times
